test: soluble on expression in E. coli; label from the status in PepcDB or PDB records

Sequence	soluble on expression in E. coli
MSLAQFYSAKRRVTTRQIITVKVNDLDSFGQGVARHNGKALFIPGLLPEESAEVIITEDKKQFARARVSRRLNDSPERETPRCPHFGVCGGCQQQHVSIALQQRSKSAALARLMKHEVNDIIAGAPWGYRRRARLSLNCPPDKPLQMGFRKAGSSDIVNVEQCPVLAPQLAALLPRIRACLASLHGTRHLGHVELVQAGSGTLMILRHTAPLSAADKEKLERFSHSEGLSLFLAPFSEILETVSGEAPWYDSHGLRLAFSPRDFIQVNEAVNQQMVARALEWLDVRAEDRVLDLFCGMGNFTLPLATRAASVIGVEGVPALVEKGRENAIRNGLHNVTFFHENLEEDVTKQPWAKNGFDKVLLDPARAGATGVMRHIIKLKPIRIVYVSCNPATLARDSEALVNAGYEVTRLAMLDMFPHTGHLESMVLFERMEGHHHHHH	soluble
MSLAQNMTIKDDFIHAFSSNANEPDWFLDIRRNAFKAYGELDLPFVDKTKITRWNFTKFETFIPFKEGVTNETLPEKVANLVDLDNKEANFYVQMDERPARLQLQQELVDQGVIFTDIISAVKNHPELVKKYFMKDAVQVNEHKLTAFHAALVNGGIFLYVPKNVEVKSPIQAVFVQDKAESPLVNHVLLVADDNSAVTYVENYVTVNNEPKGIVSIVEEVIAEKNARITFGGVDNLASEVTAYVNRRGHIGTDSQIEWALGLMNDGDTINENVTNLMGDGSSADVKTVTVGRGKQTQNVTTRVTHYGKASNGTILSHGVMKERATTIFNGIGHIKHGASKSDAQQESRVLMLSPEARGDANPILLIDENDVVAGHAASVGRVDPLQLFYLMSRGISQKEAERLVIHGFLDPVVRQLPIESVKTMLREVIEGKVREGHHHHHH	soluble
MSLARKKRNPDAEKLAESILNAYQPESVDDMQDALKDVFGPLFEKMLQGELNNHLGYDAHSKEPKEHDNRRNGYGTKTLKTSFGEVAIDVPRDREASFEPELIPKRKRDVSDIEGKVLSMYARGMSQRDIAATVEAIYGFDISHEMISDITDAVLPELEEWQARPLAKCYAFLFVDCMYVTLRENYEAKEYAVYTILGYDLKGNKEILGLWLNQTESKNRWMQVFDELKARGVEDVFFISMDGVSGLEEGAKAIFPSVIVQRCIVHLVRNALRYIPSKDYKEVCRDMKKFYGASSLNAAHAAFGSFQNRWSHYSGAVDVWKRNFAHVEQLFDYGSAIRKIMYTTNAVESVHSSFRKVTKKGAFSNENALLKLLYLRTKELHAKWSGGRIQNWAMVLKQLMINETFSSRMKSMRFTFRNNGRFIQLCVRSKEGHHHHHH	soluble
MSLARVGVVCHVHPDADTIGAGLALALVLDGCGKRVEVSFAAPATLPESLRSLPGCHLLVRPEVMRRDVDLVVTVDIPSVDRLGALGDLTDSGRELLVIDHHASNDLFGTANFIDPSADSTTTMVAEILDAWGKPIDPRVAHCIYAGLATDTGSFRWASVRGYRLAARLVEIGVDNATVSRTLMDSHPFTWLPLLSRVLGSAQLVSEAVGGRGLVYVVVDNREWVAARSEEVESIVDIVRTTQQAEVAAVFKEVEPHRWSVSMRAKTVNLAAVASGFGGGGHRLAAGYTTTGSIDDAVASLRAALGEGHHHHHH	not soluble
MSLASISLPVGGRLLPYELTGRPVPLKGRDAAAFPRVAFAAAHVVADPLADNDPWVTPAIDWERTLAFRHRLWDLGLGVAESMDTAQRGMGLGWPEARELIGRSLSEARGRSGALIACGAGTDHLVPGPNVTIDEILRAYESQIETIEAEGGRIILMASRALAAAAKGPEDYFRVYDRILSQVKEPVIIHWLGEMFDPALEGYWGNADHMAAMKTCLDVIEAHAAKVDGIKISLLSKKKEIVMRRQLPKGVRMYTGDDFNYAELISGDEEGYSDALLGIFDAIAPVASAALEALGGGRNGEFFELLDPTVPLSRHIFKAPTRFYKTGVVFLAYLNGLQDHFAMIGGQQSARSLVHLAELFRLADRAGVLQDPELAAGRMRRVLAVNGVAEGHHHHHH	soluble
MSLASTIMSQEVSWTDILEKHPALRWIKPIPEDWEIFPKHLCAFESFLYVAVGQEVRSLDCRLLKHKNEASHKNFYKKLFNPELDFMIEQICLSKNGRFLAVVGKSKIVILGLRSKLSEQNPLAESVSNFGESVNNFSNSEHQENGTNSLKLSEVTICSVAVINPSSQIVSVRFHPLGKSGRSLVVLTETSLLLYEAGNGVLMPDYEIPLKLTHQASNSFDADVDLHIPTAFCFSNVSQGWGVFTIYILTRGGDVFSVCPVMPANAMIPQDVLKQIRLILTKKEDDADAENHRRNVHWITKLLGEAALANDLSTSEGHHHHHH	soluble
MSLATEIVENMFCVNAPAGSGKTTKIKSMIVNHKIKHPIDNILCITYTKRAAEELNKDFNEEGIHISTIHSFLHKFLKIYFCKTEMKDLYFEMFEDLIKESIENKEEKEHIVTRNQKYIEKHGCLSVESIKANIDAIYYNESSNNHLYTGGLAHDSLLLFAEKVFDKFPKIKMRLTQKYQSIFIDEYQDSAASVLRMFYKACLNTKSNLYFLGDKMQQIYKNYDGSFEEELKTLNTDIKLDINHRSIPDIVSVLNNIYNDKGFKQNPSKKNLDIKPDHPPRIIMCDNIQERLKRECSIYPDALLLFLLNQQKFASIGARELYKQFSHLERYSHAKQLSATDVLSDNTSENTDPLLKLLFIVGEVVDYYKKSNVGSIIQIFKANRKLFDMGIGTITSHRDRIDLTKLLKQLYEDYHKEISISEFLTLLRGCNEGHHHHHH	not soluble
MSLATIKDVAQRAGLSISTVSRYLNHHPYISEDKKIKIQQAMDELDYVPNLVAMQLRSNKSYTIGIIVPRITNPYFAYLIDAIDKKIKGTPYHTLIMQTYNDKEEELRLLNMFKQRQIAGVIMGALENDIEVLETYTKYGPIILSADQSMQSDKVKIIHTTQRQTTYDAIQYLINKGYRNIAYCTDNNYYDHCFNKPRNVGFRVAMKDNGLDIRNEWIFNNVHTIEDGEQIGKILLRQEQLPDAIFTGSDEVALGLMHFMTAHQIDIPNQIAIMGYDNQPISSLLKIPLSTVNQPVNDIGMQLINYLLALLEETEFEINDNVLKLNIVERQSTEGHHHHHH	soluble
MSLATKLRRVRKSPPEGWDLIEPTLEQFEAKMREAETEPHEGKRKTEINWPIFRIHHQRSRYVYDMYYKKAEISRELYEFCLTAKFADAALIAKWKKQGYENLCCVKCVNTRDSNFGTACICRVPKSKLDAERVIECVHCGCHGCSG	not soluble
MSLATLLHIDSSVFPSAASASRAVAETFRTAWQEQHPDGTVIYRDLSANPVPHITADAHTAGFADPATHTPGQAAAFAEREKLIAELEQADAVLIGAPMYNYAIPSTLKAWLDNVILMGRTAANENSKVTGTPVTVIASRGGSYAPGTPREPYEYVQNYLKAVLSDALGLELEFIVPELTMAAHNPAMSELVPLAEASRAKAHEDAAAKAKELADRFAAEGHHHHHH	soluble
MSLAVLGDVARLADVSTATVSRVYNEPDKVSPSVRERVLQAAAALNWIPNAAGRALASTRTHIAGAIIPTLDDQVFASQVAGMQAVFAERGITLFLGCSNYDPAQALIQVRAMLARGVEVIAIVGEAHPPELFDALKQARVPYAITYAYREGSPHHCIGFDNRAAFVAIAEHLLALGHRTFAAVIQPARDNDRVQARVAGIREALERHGIAVRPSHLHEGPATIAFGRQSLRAIWQGADERPTAIICGNDQLAIGVLLEAAELGIKVPQQLSVTGFDDVAIAQQIHPSLTTVRVDTAEIGRRAARYLLDVLDGKEAAESGLVQPELMVRESTAEGHHHHHH	soluble
MSLAYGSLLFKRFSITIKYRKLIVEHIEKGDLKLTEEFKNILRDLMVTTFKKADSILIEKCKAEEKHYSSCTGVVLLFIKDILVNAHIGDSRSVACTYSNSINLAQFLTIDHKPDQPLEYRRIVENGGSVEYLQNHNNKPFLRGGDFTRRRARGETPMQLQYSRAFGGKDLKPYGLSCVPDISIISLNQNNRLFIIATDGIWDLLSAQQSCDLSFYSQELGIQPARYLVNAVLEETRNRNTNCDNLTAICIMHIKNEGHHHHHH	soluble
MSLAYTKKKYTPKTKEQIKEETKEIMDKVLTDITKYYRSPEDMLELANFMAKFSNYSPKNMQLIRSQFENAYACANFKAFKDAGFHVNKGETAMKVFHPYVKEYVRDPRTKLAIPLGKLTEEQKKQVKNGELKVEKQTNYYLKATAFDISQTNAKPEDLPKIFPNRQFNFEINDEGHHHHHH	not soluble
MSLCEDMLLCNYRKCRIKLSGYAWVTACSHIFCDQHGSGEFSRSPAICPACNSTLSGKLDIVRTELSPSEEYKAMVLAGLRPEIVLDISSRALAFWTYQVHQERLYQEYNFSKAEGHLKQMEKIYTQQIQSKDVELTSMKGEVTSMKKVLEEYKKKFSDISEKLMERNRQYQKLQGLYDSLRLRNITIANHEGTLEPSMIAQSGVLGFPLGNNSKFPLDNTPVRNRGDGDGDFQFRPFFAGSPTAPEPSNSFFSFVSPSRELEQQQVSSRAFKVKRI	soluble
MSLCMEAVMNIGIYIYDEAEVLDFSGPFEVFSTAKRLGAGSWNVFLVSETLEPVKARGGFTVLPDYSFQNYPQIDLLIVVGGVHRNEMNKSNVLHWVASVDKHAKHIASVCTGAFILANAGLLKGLAVTTHWEDIPELKQRFPDLVVVEDKRWITASKYTTSGGISAGIDMSLFLVSKFHSQSHAELVAHQMEYNWQKCTEGGSHHHHHH	soluble
MSLCPLTPVGKYLLLPLWLGVRPFFRALFRIEVIGKENIPEGACIVASNHRSHLDPPVLNAVFPEPLVFLAKEELFKPPFGGILKHMRAIPLRRGSEDISTLEECVSLLKLGCKIGIFPEGTRANPGEFKRAKPGVGFLAINSGFPVLPVYIDGTDRAFPRGKKFPKPFVKVSVVIGKPLEFKGLEPSVKNYKRVANEIMEEIKKLAQSLHRKEGHHHHHH	soluble
MSLDGVLISSREAIAAAWSRVAGEQGVALGPDCLRDHVHGRPGGYTLDYLFGHLPMERRRILKQRVDALEEGADCPLLPGVAAVIRQLRWLDVPLALVTSSWPARIDHVLRQHDLQAAFRTLVSRDDVVHGKPAPDGYRLAAARLGVAPSRCLVFEDSLSGVQAACAAGATCVAIGEESGLLAAGARWSVRDFRELRIVREDDRLYCQHRHPATTGSERSVGVPEGHHHHHH	not soluble
MSLDHSRDQARRNIAVHYDLSNDLFAAFLDETMTYSCAMFTDLLAQPTPAWTELAAAQRRKIDRLLDVAGVQQGSHVLEIGTGWGELCIRAAARGAHIRSVTLSVEQQRLARQRVAAAGFGHRVEIDLCDYRDVDGQYDSVVSVEMIEAVGYRSWPRYFAALEQLVRPGGPVAIQAITMPHHRMLATRHTQTWIQKYIFPGGLLPSTQAIIDITGQHTGLRIVDAASLRPHYAETLRLWRERFMQRRDGLAHLGFDEVFARMWELYLAYSEAGFRSGYLDVYQWTLIREGPEGHHHHHH	not soluble
MSLDIHDILVIDDSRLQRQHAMDLCRQLGIASVREAPDGERGLTLMRVQMPDLLLLDLEMPKQDGVQVMQEMARAGLSSPVIITSGKDYLLISTVELMGRELGLPVLGCLQKPLQLPALLDLMHRVWTPAERPDDAPLAADEVRVALEKGQIIPYYQPKVNLADGRVKGAEMLARWQHPDLGLIPPSRFIPVIEDNGWATELTMLMLRQGLTQWQEWARHGLRLPLSVNLSALSLRGDELVDEIECYVRGSHVPARFIIFEVTETAIVDNLAQAIGCAVRLRLAGLGLSIDDFGTGFATLQQLTRFPFTELKIDQSLVTGISDKPHLQAVFNSIIEMARRLQLATVAEGIETAEDYQLMAERGCQLGQGYYFARPLPAAAFLEWTRQPPVLPTAGEGHHHHHH	not soluble

From the DeepSol protein solubility set
